Assay results reported in patent publication US20250179176A1, “ANTI-TIGIT ANTIBODIES AND USES OF THE SAME” (ARCUS BIOSCIENCES, INC., priority 2022, published 2025).

Test system: CD4+ T cells, CD8+ T cells, and Tregs
Assay: Peripheral T cell absolute counts and frequencies (Trucount, flow cytometry)
Type: in vivo, human
Conditions: humans
Protocol: White blood cell counts for 11 patients have been followed for up to 85 days of treatment. See Table 17 for additional patient details. Cell counts were assessed in pre- and post-dose whole blood patient samples using commercially available Trucount tubes (BD Biosciences). CD45, CD3, CD4, CD8, CD25, and CD127 antibodies were used to detect peripheral blood T cells and Tregs using flow cytometry. The antibody cocktail and […] of whole blood was added to Trucount tubes, vortexed, and incubated for 15 minutes at room temperature. The stained whole blood was lysed using 900µl of 1×BD FACs Lyse solution followed by vortexing, and incubation for 15 minutes at room temperature. Absolute counts were calculated as detailed in the Trucount technical data sheet. Briefly, the absolute count of a cell population (A) was obtained by dividing the number of positive cells events (X) by the number of bead events (Y), and then multiplying by the BD Trucount bead concentration (N/V, where N is the number of beads per test and V is the test volume). A=X/Y×N/V. Absolute cell count was then reported per μl of whole blood (WB).
Absolute cell counts were not measured in all patients due to limited sample collection. […] Frequencies of different populations were determined relative to a parent population and each timepoint was normalized to baseline (C1D1 predose) to compute fold change.

B1: domvanalimab: anti-TIGIT antibody with engineered IgG1 Fc, reduced FcγR binding; heavy chain SEQ ID NO: 12, light chain SEQ ID NO: 13 (antibody)
heavy: EVQLVESGGGLVQPGGSLRLSCAASGFTFSNFGMHWVRQAPGKGLEWVAFISSGSSSIYYADTVKGRFTISRDNAKNSLYLQMNSLRAEDTAVYYCARMRLDYYAMDYWGQGTMVTVSSASTKGPSVFPLAPSSKSTSGGTAALGCLVKDYFPEPVTVSWNSGALTSGVHTFPAVLQSSGLYSLSSVVTVPSSSLGTQTYICNVNHKPSNTKVDKKVEPKSCDKTHTCPPCPAPEAAGGPSVFLFPPKPKDTLMISRTPEVTCWVDVSHEDPEVKFNWYVDGVEVHNAKTKPREEQYNSTYRWSVLTVLHQDWLNGKEYKCKVSNKALPAPIEKTISKAKGQPREPQVYTLPPSRDELTKNQVSLTCLVKGFYPSDIAVEWESNGQPENNYKTTPPVLDSDGSFFLYSKLTVDKSRWQQGNVFSCSVMHEALHNHYTQKSLSLSPGK
light: DIQMTQSPSSLSASVGDRVTITCRASKSISKYLAWYQQKPGKAPKLLIYSGSTLQSGVPSRFSGSGSGTDFTLTISSLQPEDFATYYCQQHNEYPWTFGGGTKVEIKRTVAAPSVFIFPPSDEQLKSGTASWCLLNNFYPREAKVQWKVDNALQSGNSQESVTEQDSKDSTYSLSSTLTLSKADYEKHKVYACEVTHQGLSSPVTKSFNRGEC
depletion of peripheral T cells: does not deplete
